Results on 3 molecules are retold here after patent US8697369B2, “Method for screening a test substance for activating a receptor associated with FGF 21 activity” (National Institute of Advanced Industrial Science and …, priority 2007, dated 2014).

Experiment [1] concerns 3T3-L1 fibroblasts forced to express betaKlotho. The experiment in a line: Phosphorylation of FRS2 and MAPK in undifferentiated 3T3-L1 cells forced to express betaKlotho. It counts as cell-based. The conditions noted are these: 10 μM; pre-treated for 3 hours, then stimulated with FGF21. As for the experimental part:
A betaKlotho expression vector produced by the method described in Example 4 and an empty vector used as a control, into which betaKlotho cDNA had not been inserted, were introduced into 3T3-L1 fibroblasts cultured as described in Example 1 by a lipofection method, thereby obtaining Puromycin-resistant clones. These different types of cells were stimulated with FGF21, and 10 minutes after the stimulation, a cell lysate was prepared. The activation of FRS2 and MAPK that were signaling molecules located downstream of FGFR was examined by a Western blotting method.

Experiment [2] has as its target T1, FGF receptor subtype R4 (FGFR-Fc) (Homo sapiens, UniProt P22455).
T1 construct: adding an immunoglobulin Fc domain to the extracellular domain of an FGF receptor; purchased R&D Systems
T1 sequence (P22455 22-369 limits assumed): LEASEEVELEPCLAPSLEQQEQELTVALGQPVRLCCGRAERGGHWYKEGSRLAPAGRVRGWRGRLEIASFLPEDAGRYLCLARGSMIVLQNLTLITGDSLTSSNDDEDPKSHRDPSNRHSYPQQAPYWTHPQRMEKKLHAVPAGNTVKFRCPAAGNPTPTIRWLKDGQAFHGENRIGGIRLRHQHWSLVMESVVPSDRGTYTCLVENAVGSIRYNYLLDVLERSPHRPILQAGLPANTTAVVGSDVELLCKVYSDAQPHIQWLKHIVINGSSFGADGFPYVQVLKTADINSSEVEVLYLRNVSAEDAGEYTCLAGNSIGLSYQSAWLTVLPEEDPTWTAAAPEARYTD
Briefly: Co-precipitation of soluble betaKlotho with FGFR-Fc (protein A beads), R4. It counts as binding. As for the experimental part:
(§1) Moreover, the soluble betaKlotho protein and a fusion protein obtained by adding an immunoglobulin Fc domain to the extracellular domain of an FGF receptor (FGFR-Fc; manufactured by R&D Systems) were incubated, and FGFR-Fc was then precipitated using protein A beads. Whether or not betaKlotho bound to FGFR-Fc and was co-precipitated therewith was analyzed.

In experiment [3] the target is T2, FGF receptor subtype R3c (FGFR-Fc) (Homo sapiens, UniProt P22607).
T2 construct: adding an immunoglobulin Fc domain to the extracellular domain of an FGF receptor; purchased R&D Systems
T2 sequence (P22607 23-375 limits assumed): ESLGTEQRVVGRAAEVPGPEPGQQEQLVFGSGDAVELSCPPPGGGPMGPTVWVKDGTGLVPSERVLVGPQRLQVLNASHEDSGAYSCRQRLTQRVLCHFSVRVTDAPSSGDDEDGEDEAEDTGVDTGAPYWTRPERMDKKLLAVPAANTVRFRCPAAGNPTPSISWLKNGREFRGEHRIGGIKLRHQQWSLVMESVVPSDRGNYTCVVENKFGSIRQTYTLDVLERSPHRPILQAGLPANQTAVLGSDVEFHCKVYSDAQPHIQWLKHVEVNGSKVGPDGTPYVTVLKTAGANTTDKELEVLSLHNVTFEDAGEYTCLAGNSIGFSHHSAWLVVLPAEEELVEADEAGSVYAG
Briefly: Co-precipitation of soluble betaKlotho with FGFR-Fc (protein A beads), R3c. It counts as binding. As for the experimental part: as §1

In experiment [4] the target is T3, FGF receptor subtype R2c (FGFR-Fc) (Homo sapiens, UniProt P21802).
T3 construct: adding an immunoglobulin Fc domain to the extracellular domain of an FGF receptor; purchased R&D Systems
Briefly: Co-precipitation of soluble betaKlotho with FGFR-Fc (protein A beads), R2c. It counts as binding. As for the experimental part:
as §1

Experiment [5] concerns the target T4, FGF receptor subtype R1c (FGFR-Fc) (Homo sapiens, UniProt P11362).
T4 construct: adding an immunoglobulin Fc domain to the extracellular domain of an FGF receptor; purchased R&D Systems
T4 sequence (P11362 22-376 limits assumed): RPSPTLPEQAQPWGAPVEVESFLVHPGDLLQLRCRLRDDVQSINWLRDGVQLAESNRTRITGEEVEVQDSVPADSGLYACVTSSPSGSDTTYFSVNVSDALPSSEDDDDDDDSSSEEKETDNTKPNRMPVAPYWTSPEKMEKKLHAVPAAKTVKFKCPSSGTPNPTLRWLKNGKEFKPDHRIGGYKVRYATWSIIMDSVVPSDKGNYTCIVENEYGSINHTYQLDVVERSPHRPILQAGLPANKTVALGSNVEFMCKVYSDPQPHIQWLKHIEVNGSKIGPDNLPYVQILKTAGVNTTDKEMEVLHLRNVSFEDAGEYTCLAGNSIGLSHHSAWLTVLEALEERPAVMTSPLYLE
Briefly: Co-precipitation of soluble betaKlotho with FGFR-Fc (protein A beads), R1c. It counts as binding. As for the experimental part: as §1

The target of experiment [6] is T5, BaF3 cells that had co-expressed FGFR1c and Klotho (Mus musculus, UniProt O35082+P16092).
T5 construct: the entire-length cDNA of mouse FGFR1c had been cloned; expressed in transfected cells; host or cells: BaF3 (mouse pro-B) cells
The experiment in a line: DNA synthesis in BaF3 cells co-expressing FGFR1c and Klotho. It counts as cell-based. To be noted: presence or absence of heparin. As for the experimental part: Specifically, BaF3 cell that had co-expressed FGFR1c and betaKlotho and BaF3 cells that had co-expressed FGFR1c and Klotho were prepared by the same transformation method and under the same culture conditions as those applied in Example 4. Thereafter, FGF21 and FGF23 were added to both types of transformed cells in the presence or absence of heparin, and the amount of DNA synthesized was then measured.

For experiment [7], the target named is T6, FGFR1c/betaKlotho-expressing BaF3 cells (Mus musculus, UniProt P16092+Q99N32).
T6 construct: the entire-length cDNA of mouse FGFR1c had been cloned; the entire-length cDNA of mouse betaKlotho was cloned into an animal cell expression vector; expressed in transfected cells; host or cells: BaF3 (mouse pro-B) cells
The experiment in a line: DNA synthesis (thymidine incorporation) in FGFR1c/betaKlotho-expressing BaF3 cells. To be noted: BaF3 cells expressing FGFR1c and betaKlotho; presence or absence of heparin. It counts as cell-based. As for the experimental part: A commonly used measurement method is a cell growth stimulating activity measurement method described in Ornitz, D. M., Xu, J., Colvin, J. S., McEwen, D. G., MacArthur, C. A., Coulier, F., Gao, G. and Goldfarb, M. (1996) Receptor specificity of the fibroblast growth factor family. J Biol Chem, 271, 15292-15297. The summary thereof is as follows. FGF used as a measurement target is added to a culture solution containing a cultured cell having an FGF receptor on the surface thereof, and the obtained mixture is cultured for a certain period of time. Thereafter, a labeled thymidine is added to the culture solution, followed by further culture for a certain period of time. By measuring the amount of the labeled thymidine incorporated into polymeric DNA during the culture, the degree of FGF to activate DNA synthesis is evaluated. (In the present invention as well, this method was adopted when the activity of FGF21 was measured in Examples 4, 5, 6, 8, 9, and 10.)
FGFR1c-expressing BaF3 cells and FGFR1c- and betaKlotho-expressing BaF3 cells were prepared as follows. In the case of FGFR1c-expressing BaF3 cells, an animal cell expression vector into which the entire-length cDNA of mouse FGFR1c had been cloned (described in Ornitz, D. M., Xu, J., Colvin, J. S., McEwen, D. G., MacArthur, C. A., Coulier, F., Gao, G. and Goldfarb, M. (1996) Receptor specificity of the fibroblast growth factor family. J Biol Chem, 271, 15292-15297.) was introduced into BaF3 cells by an electroporation method. The cells were then cultured in the presence of G418 for approximately 2 weeks, so as to obtain drug-resistant clones. Thereafter, such clones were obtained as those capable of growing as a result of FGF1 stimulation. In the case of both FGFR1c- and betaKlotho-expressing BaF3 cells, the entire-length cDNA of mouse betaKlotho was cloned into an animal cell expression vector, and it was then introduced into the FGFR1c-expressing BaF3 cells. The cells were then cultured in the presence of Puromycin and G418 for approximately 2 weeks, so as to obtain drug-resistant clones. In the case of only betaKlotho-expressing BaF3 cells, a betaKlotho-expressing vector was introduced into BaF3 cells, and Puromycin-resistant clones were then obtained. The BaF3 cells, into which the aforementioned genes had been each introduced, were maintained in an RPMI1640 medium containing 10% FBS and interleukin 3 (IL3, supplied by adding a 5% condition medium of WEHI-3 cells). For the growth stimulation experiment, the cells were washed with an RPMI1640 medium, and they were then suspended in an RPMI1640 medium containing 10% FBS, followed by inoculating the suspension on a culture plate. Thereafter, the resultant cells were used.
Immediately after inoculation, BaF3 cells that had expressed each clone and only FGFR1c were stimulated by addition of FGF21 (open bar) or PBS (filled bar) used as a control in the presence of heparin, and they were then cultured for 42 hours. Thereafter, tritium-labeled thymidine was added to the culture solution, and the culture was further continued for 6 hours. Thereafter, the amount of thymidine incorporated into the cells was measured, so as to evaluate DNA synthesis. A DNA synthesis value obtained when the cells were not stimulated with FGF21 was defined as 1, and the ratio of a DNA synthesis value obtained by stimulating with FGF21 to the aforementioned DNA synthesis value was expressed using magnification. […]
On the technique in general: Dividing cells build labelled thymidine or BrdU into new DNA.

T3 sequence (P21802 22-377 limits assumed): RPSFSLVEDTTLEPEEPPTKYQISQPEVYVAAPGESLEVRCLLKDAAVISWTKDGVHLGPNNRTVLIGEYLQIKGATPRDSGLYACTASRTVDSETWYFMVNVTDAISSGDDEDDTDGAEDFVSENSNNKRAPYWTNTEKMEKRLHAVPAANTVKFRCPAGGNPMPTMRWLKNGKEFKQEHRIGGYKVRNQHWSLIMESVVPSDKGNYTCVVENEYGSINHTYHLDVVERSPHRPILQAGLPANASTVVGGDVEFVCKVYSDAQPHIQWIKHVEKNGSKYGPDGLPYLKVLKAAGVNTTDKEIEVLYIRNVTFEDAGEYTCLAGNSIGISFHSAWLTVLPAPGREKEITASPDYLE
T5 sequence (P16092 22-822): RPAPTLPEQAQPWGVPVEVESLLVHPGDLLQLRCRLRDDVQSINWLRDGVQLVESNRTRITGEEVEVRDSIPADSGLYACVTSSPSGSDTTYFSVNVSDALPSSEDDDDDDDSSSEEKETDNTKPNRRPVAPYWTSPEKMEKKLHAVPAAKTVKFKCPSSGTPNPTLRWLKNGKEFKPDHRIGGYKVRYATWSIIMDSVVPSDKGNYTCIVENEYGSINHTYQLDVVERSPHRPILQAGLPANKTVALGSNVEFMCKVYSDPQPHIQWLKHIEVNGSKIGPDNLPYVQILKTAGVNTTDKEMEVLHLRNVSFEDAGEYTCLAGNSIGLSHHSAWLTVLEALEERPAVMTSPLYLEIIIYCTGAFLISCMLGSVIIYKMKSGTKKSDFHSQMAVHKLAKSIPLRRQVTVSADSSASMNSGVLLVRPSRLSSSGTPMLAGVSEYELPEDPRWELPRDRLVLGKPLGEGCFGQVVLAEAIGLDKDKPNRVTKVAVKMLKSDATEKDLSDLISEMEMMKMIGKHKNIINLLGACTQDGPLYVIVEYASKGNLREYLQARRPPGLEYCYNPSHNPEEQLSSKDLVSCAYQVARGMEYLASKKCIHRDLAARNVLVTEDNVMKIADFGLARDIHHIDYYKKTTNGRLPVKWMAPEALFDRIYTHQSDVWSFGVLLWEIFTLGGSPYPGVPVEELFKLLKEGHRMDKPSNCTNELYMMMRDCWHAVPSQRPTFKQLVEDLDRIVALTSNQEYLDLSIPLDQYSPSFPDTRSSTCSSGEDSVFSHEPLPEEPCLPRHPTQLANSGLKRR
T5 sequence (O35082 35-1014): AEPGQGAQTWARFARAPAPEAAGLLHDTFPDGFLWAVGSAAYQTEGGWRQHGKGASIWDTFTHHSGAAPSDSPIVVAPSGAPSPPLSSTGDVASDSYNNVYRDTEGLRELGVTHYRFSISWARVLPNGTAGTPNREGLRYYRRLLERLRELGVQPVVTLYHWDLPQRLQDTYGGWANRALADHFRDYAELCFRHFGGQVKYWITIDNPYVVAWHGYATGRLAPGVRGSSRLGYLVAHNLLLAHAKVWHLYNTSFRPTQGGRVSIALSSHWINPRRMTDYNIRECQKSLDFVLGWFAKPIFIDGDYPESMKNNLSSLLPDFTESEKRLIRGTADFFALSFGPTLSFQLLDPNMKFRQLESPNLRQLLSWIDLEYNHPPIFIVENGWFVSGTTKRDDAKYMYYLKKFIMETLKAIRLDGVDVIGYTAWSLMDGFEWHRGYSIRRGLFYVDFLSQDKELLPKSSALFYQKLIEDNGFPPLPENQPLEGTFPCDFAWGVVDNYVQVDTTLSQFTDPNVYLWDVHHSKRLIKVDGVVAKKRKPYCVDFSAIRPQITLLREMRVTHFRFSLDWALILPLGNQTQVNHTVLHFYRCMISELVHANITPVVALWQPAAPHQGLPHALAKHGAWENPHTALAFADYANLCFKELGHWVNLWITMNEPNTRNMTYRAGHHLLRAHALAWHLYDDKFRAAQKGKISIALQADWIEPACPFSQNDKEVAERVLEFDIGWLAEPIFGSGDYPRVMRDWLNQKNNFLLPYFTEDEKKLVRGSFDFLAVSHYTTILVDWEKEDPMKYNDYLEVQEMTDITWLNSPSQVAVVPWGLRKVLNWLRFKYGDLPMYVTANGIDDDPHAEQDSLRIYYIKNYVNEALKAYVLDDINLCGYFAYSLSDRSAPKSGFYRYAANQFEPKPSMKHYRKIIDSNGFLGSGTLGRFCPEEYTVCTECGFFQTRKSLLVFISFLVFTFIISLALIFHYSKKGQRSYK
T6 sequence (P16092 22-822): as the sequence (P16092 22-822) above
T6 sequence (Q99N32 whole entry): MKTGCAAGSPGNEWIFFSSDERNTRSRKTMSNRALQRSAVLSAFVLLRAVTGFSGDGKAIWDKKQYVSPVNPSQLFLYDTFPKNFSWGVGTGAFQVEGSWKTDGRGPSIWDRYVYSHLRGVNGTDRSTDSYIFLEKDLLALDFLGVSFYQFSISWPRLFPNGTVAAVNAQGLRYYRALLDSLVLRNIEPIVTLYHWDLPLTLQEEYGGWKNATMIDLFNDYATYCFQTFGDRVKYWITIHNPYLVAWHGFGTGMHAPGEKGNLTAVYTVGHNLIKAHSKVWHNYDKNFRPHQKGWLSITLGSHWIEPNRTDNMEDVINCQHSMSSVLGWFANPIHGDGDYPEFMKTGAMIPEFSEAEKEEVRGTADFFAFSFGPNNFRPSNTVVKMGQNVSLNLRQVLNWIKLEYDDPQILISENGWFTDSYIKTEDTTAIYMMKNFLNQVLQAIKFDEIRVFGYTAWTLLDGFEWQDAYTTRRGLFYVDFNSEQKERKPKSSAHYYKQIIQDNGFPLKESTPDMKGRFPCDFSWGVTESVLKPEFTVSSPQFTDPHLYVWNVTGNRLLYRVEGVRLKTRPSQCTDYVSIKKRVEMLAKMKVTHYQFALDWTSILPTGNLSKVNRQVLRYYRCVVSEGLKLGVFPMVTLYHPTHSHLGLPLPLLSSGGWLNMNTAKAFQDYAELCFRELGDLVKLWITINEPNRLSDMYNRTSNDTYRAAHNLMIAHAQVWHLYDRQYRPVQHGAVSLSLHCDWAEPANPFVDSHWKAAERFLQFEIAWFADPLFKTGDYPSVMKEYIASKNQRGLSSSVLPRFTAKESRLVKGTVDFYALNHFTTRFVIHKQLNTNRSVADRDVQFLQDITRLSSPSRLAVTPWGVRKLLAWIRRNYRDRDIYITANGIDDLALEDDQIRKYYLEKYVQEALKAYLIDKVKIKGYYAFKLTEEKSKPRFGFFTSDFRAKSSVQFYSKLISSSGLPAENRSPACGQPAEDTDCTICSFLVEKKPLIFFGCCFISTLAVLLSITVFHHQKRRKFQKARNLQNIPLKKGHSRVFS

For the molecule `Cc1c[nH]c(/C=C2\C(=O)Nc3ccccc32)c1CCC(=O)O` [SU5402, reference compound], in experiment [1], the “degree of phosphorylation of FRS2 and MAPK on FGF21 stimulation after inhibitor pre-treatment” value was “decreased”.
For the molecule “betaKlotho: soluble protein: extracellular domain of betaKlotho with V5 tag and His tag at the C-terminus”, the “co-precipitation (binding) with FGFR-Fc” value in experiment [2], in experiment [3], in experiment [4] and in experiment [5] was “binds to all of FGF receptor subtypes” throughout.

B1: FGF23: FGF having high structural similarity to FGF21; Klotho acts as its co-receptor (protein, UniProt Q9GZV9 25-251, looked up)
Fibroblast growth factor 23: YPNASPLLGSSWGGLIHLYTATARNSYHLQIHKNGHVDGAPHQTIYSALMIRSEDAGFVVITGVMSRRYLCMDFRGNIFGSHYFDPENCRFQHQTLENGYDVYHSPQYHFLVSLGRAKRAFLPGMNPPPYSQFLSRRNEIPLIHFNTPIPRRHTRSAEDDSERDPLNVLKPRARMTPAPASCSQELPSAEDNSPMASDPLGVVRGGRVNTHAGGTGPEGCRPFAKFI
As for B1, in experiment [6], the “amount of DNA synthesized” value is “able to act on FGFR1c-expressing cells”. For the same molecule, the “DNA synthesis (thymidine incorporated into the cells)” value in experiment [7] is listed as “did not react with FGFR1c”.
